# Results reported in article PMC9482650, “Quantitative fragmentomics allow affinity mapping of interactomes” (Nature Communications, 2022).
# T1: RAPGEF6, Q8TEU7
# T1 sequence (Q8TEU7 525-625, limits assumed, looked up): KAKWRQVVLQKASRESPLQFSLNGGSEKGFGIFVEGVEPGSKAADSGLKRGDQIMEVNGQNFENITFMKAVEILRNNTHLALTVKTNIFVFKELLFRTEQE
# T2: SNTG1, Q9NSN8
# T2 sequence (Q9NSN8 52-150, limits assumed, looked up): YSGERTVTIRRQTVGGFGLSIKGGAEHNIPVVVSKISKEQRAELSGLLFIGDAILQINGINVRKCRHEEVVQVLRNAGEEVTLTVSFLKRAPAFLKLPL
# T3: HTRA3, P83110
# T3 sequence (P83110 354-453, limits assumed, looked up): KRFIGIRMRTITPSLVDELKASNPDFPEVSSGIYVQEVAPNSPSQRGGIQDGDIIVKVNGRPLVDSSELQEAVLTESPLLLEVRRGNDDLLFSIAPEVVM
# T4: DFNB31_2, Q9P202
# T4 sequence (Q9P202 274-371, limits assumed, looked up): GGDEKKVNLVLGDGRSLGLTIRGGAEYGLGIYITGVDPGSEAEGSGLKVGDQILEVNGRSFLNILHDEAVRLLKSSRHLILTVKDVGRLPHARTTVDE
# T5: TJP3_3, O95049
# T5 sequence (O95049 375-456, limits assumed, looked up): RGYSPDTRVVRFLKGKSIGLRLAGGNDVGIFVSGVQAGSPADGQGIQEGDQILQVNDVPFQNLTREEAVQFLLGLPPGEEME
# T6: MPDZ_12, O75970
# T6 sequence (O75970 1857-1958, limits assumed, looked up): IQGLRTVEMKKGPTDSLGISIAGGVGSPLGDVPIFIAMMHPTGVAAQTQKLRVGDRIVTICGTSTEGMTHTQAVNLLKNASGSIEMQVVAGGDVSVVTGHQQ
# T7: APBA3_1, O96018
# T7 sequence (O96018 389-490, limits assumed, looked up): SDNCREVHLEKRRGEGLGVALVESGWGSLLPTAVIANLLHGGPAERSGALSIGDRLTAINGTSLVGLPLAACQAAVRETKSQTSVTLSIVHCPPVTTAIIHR
# T8: DFNB31_3, Q9P202
# T8 sequence (Q9P202 811-907, limits assumed, looked up): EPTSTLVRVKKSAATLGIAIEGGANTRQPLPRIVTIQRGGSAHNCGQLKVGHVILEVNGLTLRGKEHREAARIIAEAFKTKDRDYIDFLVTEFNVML
# T9: ARHGEF11, O15085
# T9 sequence (O15085 42-136, limits assumed, looked up): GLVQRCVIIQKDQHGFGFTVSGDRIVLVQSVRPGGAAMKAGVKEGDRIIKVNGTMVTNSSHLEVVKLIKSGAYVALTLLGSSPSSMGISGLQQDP
# T10: LNX2_2, Q8N448
# T10 sequence (Q8N448 334-432, limits assumed, looked up): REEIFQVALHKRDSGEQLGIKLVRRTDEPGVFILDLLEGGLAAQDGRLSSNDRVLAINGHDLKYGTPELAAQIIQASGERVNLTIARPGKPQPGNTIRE
# T11: SNTB1, Q13884
# T11 sequence (Q13884 107-205, limits assumed, looked up): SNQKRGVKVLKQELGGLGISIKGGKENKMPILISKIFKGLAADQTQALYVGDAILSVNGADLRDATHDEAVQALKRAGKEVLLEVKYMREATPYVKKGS
# Experiments:
# Assay in all cases: holdup assay
# Set-up in all cases: key: below the threshold = too weak to quantify, mostly under pKd 3.1 to 4
# Details in all cases: plain residues with an end cap or a label only (N-terminal biotin on a linker: ado-ado)
# PICK1, Q9NRD5 = target: PICK1, Q9NRD5
# Inadl_4, Q8NI35 = target: Inadl_4, Q8NI35
# DLG1_2, Q12959 = target: DLG1_2, Q12959
# NOS1, P29475 = target: NOS1, P29475
# RAPGEF6, Q8TEU7 = target: T1, RAPGEF6, Q8TEU7
# SNTG1, Q9NSN8 = target: T2, SNTG1, Q9NSN8
# HTRA3, P83110 = target: T3, HTRA3, P83110
# GIPC2, Q8TF65 = target: GIPC2, Q8TF65
# DFNB31_2, Q9P202 = target: T4, DFNB31_2, Q9P202
# SCRIB_1, Q14160 = target: SCRIB_1, Q14160
# TJP1_3, Q07157 = target: TJP1_3, Q07157
# PTPN3, P26045 = target: PTPN3, P26045
# DLG1_1, Q12959 = target: DLG1_1, Q12959
# Inadl_10, Q8NI35 = target: Inadl_10, Q8NI35
# MAGI2_6, Q86UL8 = target: MAGI2_6, Q86UL8
# SNX27, Q96L92 = target: SNX27, Q96L92
# TJP3_3, O95049 = target: T5, TJP3_3, O95049
# MPDZ_12, O75970 = target: T6, MPDZ_12, O75970
# CASK, O14936 = target: CASK, O14936
# APBA3_1, O96018 = target: T7, APBA3_1, O96018
# GOPC, Q9HD26 = target: GOPC, Q9HD26
# DFNB31_3, Q9P202 = target: T8, DFNB31_3, Q9P202
# IL16_3, Q14005 = target: IL16_3, Q14005
# ARHGEF11, O15085 = target: T9, ARHGEF11, O15085
# LNX2_2, Q8N448 = target: T10, LNX2_2, Q8N448
# NHERF4_2, Q86UT5 = target: NHERF4_2, Q86UT5
# SNTB1, Q13884 = target: T11, SNTB1, Q13884
# Sequence of CASK, O14936 (O14936 487-570): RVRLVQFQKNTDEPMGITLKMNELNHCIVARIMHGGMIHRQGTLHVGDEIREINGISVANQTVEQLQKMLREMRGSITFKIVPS
# Sequence of Inadl_10, Q8NI35 (Q8NI35 1673-1763): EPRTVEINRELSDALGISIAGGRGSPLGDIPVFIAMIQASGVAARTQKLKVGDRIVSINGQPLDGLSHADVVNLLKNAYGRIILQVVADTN
# Sequence of GIPC2, Q8TF65 (Q8TF65 112-203): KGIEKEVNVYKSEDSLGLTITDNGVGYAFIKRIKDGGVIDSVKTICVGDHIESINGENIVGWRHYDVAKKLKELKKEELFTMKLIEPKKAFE
# Sequence of PICK1, Q9NRD5 (Q9NRD5 17-115): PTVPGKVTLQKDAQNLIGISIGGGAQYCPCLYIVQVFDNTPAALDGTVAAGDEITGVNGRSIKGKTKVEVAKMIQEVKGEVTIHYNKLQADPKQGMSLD
# Sequence of PTPN3, P26045 (P26045 505-587): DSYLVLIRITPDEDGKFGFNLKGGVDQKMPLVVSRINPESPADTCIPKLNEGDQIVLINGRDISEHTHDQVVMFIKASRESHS
# Sequence of IL16_3, Q14005 (Q14005 1107-1207): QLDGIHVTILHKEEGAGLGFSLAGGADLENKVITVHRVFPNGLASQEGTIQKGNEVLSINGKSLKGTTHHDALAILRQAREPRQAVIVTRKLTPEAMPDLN
# Sequence of Inadl_4, Q8NI35 (Q8NI35 547-651): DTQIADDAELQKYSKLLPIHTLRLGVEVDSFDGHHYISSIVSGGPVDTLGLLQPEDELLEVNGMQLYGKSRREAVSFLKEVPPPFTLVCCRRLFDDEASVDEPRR
# Sequence of SCRIB_1, Q14160 (Q14160 718-814): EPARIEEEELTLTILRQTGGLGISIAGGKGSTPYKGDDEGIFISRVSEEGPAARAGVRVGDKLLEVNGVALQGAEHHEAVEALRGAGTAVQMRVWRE
# Sequence of NOS1, P29475 (P29475 9-101): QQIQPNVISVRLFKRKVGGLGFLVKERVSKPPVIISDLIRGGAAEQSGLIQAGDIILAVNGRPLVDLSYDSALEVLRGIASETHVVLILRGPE
# Sequence of MAGI2_6, Q86UL8 (Q86UL8 1141-1229): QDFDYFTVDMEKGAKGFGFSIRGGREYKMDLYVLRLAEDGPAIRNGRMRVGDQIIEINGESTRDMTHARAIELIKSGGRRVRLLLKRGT
# Sequence of NHERF4_2, Q86UT5 (Q86UT5 220-308): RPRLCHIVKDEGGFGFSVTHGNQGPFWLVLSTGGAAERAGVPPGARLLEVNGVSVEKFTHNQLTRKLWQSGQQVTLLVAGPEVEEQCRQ
# Sequence of TJP1_3, Q07157 (Q07157 416-512): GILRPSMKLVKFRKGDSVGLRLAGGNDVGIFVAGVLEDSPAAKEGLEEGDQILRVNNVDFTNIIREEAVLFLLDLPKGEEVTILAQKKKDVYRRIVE
Binder,"pKd (PICK1, Q9NRD5)","pKd (Inadl_4, Q8NI35)","pKd (DLG1_2, Q12959)","pKd (NOS1, P29475)","pKd (RAPGEF6, Q8TEU7)","pKd (SNTG1, Q9NSN8)","pKd (HTRA3, P83110)","pKd (GIPC2, Q8TF65)","pKd (DFNB31_2, Q9P202)","pKd (SCRIB_1, Q14160)","pKd (TJP1_3, Q07157)","pKd (PTPN3, P26045)","pKd (DLG1_1, Q12959)","pKd (Inadl_10, Q8NI35)","pKd (MAGI2_6, Q86UL8)","pKd (SNX27, Q96L92)","pKd (TJP3_3, O95049)","pKd (MPDZ_12, O75970)","pKd (CASK, O14936)","pKd (APBA3_1, O96018)",other results
"GSQSQVETEA [FKBP4, Q02790]",below the threshold,below the threshold,below the threshold,below the threshold,below the threshold,below the threshold,below the threshold,3.79,below the threshold,below the threshold,below the threshold,4.08,below the threshold,below the threshold,below the threshold,below the threshold,below the threshold,3.52,below the threshold,below the threshold,"pKd (GOPC, Q9HD26): below the threshold; pKd (DFNB31_3, Q9P202): below the threshold; pKd (IL16_3, Q14005): below the threshold; pKd (ARHGEF11, O15085): below the threshold; pKd (LNX2_2, Q8N448): below the threshold; pKd (NHERF4_2, Q86UT5): below the threshold; pKd (SNTB1, Q13884): below the threshold"
"ATKDKKITTV [EXOC4, Q96A65]",below the threshold,below the threshold,5.91,3.69,below the threshold,3.72,below the threshold,below the threshold,below the threshold,3.85,below the threshold,4.31,5.05,below the threshold,3.72,4.38,below the threshold,below the threshold,below the threshold,below the threshold,"pKd (GOPC, Q9HD26): 3.87; pKd (DFNB31_3, Q9P202): below the threshold; pKd (IL16_3, Q14005): below the threshold; pKd (ARHGEF11, O15085): 4.38; pKd (LNX2_2, Q8N448): 5.24; pKd (NHERF4_2, Q86UT5): below the threshold; pKd (SNTB1, Q13884): 4.34"
"FHSIKQSTAV [CRHR1, P34998]",below the threshold,below the threshold,4.98,4.19,below the threshold,3.64,below the threshold,below the threshold,below the threshold,4.01,below the threshold,4.6,4.39,below the threshold,3.83,4.91,below the threshold,below the threshold,below the threshold,below the threshold,"pKd (GOPC, Q9HD26): 4; pKd (DFNB31_3, Q9P202): below the threshold; pKd (IL16_3, Q14005): below the threshold; pKd (ARHGEF11, O15085): 5; pKd (LNX2_2, Q8N448): 4.16; pKd (NHERF4_2, Q86UT5): below the threshold; pKd (SNTB1, Q13884): 3.75"
